In paper PMC5882628, “Development of a Cell-Based Assay to Assess Binding of the proNGF Prodomain to Sortilin” (Cellular and Molecular Neurobiology, 2017):
Entries after “also recorded” stand apart in the source; their conditions may differ.

Tests used:
[1] = tested on: internalization-mutant sortilin; experiment: GSTpro binding to HEK293 cells expressing internalization-mutant sortilin; assay type: cell-based, human; conditions: compared with wild type sortilin
Method: HEK 293 cells were grown in DMEM with 10% fetal bovine serum. They were transfected with plasmids either encoding wild type sortilin, or sortilin with a mutation that renders it endocytosis deficient, or an empty control vector according to manufacturer’s instructions using 20 µg lipofectamine (Thermo Fischer Scientific) with 8 µg DNA on […] per 6 cm, poly-lysine coated dish. The cells were initially plated into 24-well dishes after transfection. That intermediate step rendered more uniform cell numbers in the 96-well dishes that were used to run the actual assay. 24 h later, cells were split into black opaque-walled, clear-bottom 96 well dishes at 42000 cells in 80 µl medium/well. […]
The fixed cells were washed with PBS for 15 min, followed by two 15 min washes with PBS with 0.1% Triton X-100. […] Wells to be evaluated for blocking of the sortilin-GSTpro interaction by antibodies were only stained with an antibody against the pro domain of proNGF in 10% FBS at a dilution of 1:1500 (Millipore (N-term) clone EPI318Y, Rabbit Monoclonal Antibody Catalog Number: #04-1142). […]
The following day, wells were washed 3 × 15 min with PBS/0.1% Triton X-100. […] Cellular fluorescence was quantified using an array scanner and the “Neuronal Profiler” Bioapplication (Thermo Fisher Scientific) as described below.

sortilin [2] = target: T1, sortilin (Homo sapiens, UniProt Q99523); experiment: GSTpro internalization: acid wash (PBS, pH 2.0) before fixation; assay type: cell-based; conditions: PBS pH 2.0 immediately before fixation
T1 construct: They were transfected with plasmids either encoding wild type sortilin, or sortilin with a mutation that renders it endocytosis deficient; expressed in transfected cells; host or cells: HEK 293 cells, transient transfection (lipofectamine)
T1 sequence (Q99523 78-831): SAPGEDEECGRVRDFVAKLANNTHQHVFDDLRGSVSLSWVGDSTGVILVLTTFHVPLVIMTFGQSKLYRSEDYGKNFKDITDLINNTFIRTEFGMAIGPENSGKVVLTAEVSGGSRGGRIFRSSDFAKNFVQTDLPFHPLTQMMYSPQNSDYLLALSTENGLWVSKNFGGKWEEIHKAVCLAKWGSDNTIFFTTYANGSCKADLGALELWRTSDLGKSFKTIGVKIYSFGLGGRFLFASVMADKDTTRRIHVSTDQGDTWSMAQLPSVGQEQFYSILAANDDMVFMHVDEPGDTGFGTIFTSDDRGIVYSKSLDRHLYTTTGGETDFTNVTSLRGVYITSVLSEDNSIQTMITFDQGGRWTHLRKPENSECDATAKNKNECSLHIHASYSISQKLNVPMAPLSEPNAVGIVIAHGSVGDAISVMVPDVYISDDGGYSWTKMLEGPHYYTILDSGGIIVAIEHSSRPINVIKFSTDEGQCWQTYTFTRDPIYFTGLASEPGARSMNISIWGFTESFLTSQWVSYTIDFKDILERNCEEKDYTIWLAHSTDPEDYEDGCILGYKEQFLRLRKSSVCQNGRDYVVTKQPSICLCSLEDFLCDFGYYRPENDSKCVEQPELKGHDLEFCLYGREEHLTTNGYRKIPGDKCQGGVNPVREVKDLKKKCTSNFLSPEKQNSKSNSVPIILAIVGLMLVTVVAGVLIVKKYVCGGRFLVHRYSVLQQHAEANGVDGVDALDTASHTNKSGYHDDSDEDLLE
Description: To further examine whether GSTpro was internalized, rather than only binding to the cell exterior, extracellularly bound ligand was removed by washing cells in PBS acidified to pH 2.0 with HCl supplemented with 0.03 M sucrose and 10% FCS immediately before fixation.
It was not clear whether the detected ligand signal was only due to GSTpro binding to sortilin, or whether sortilin would be subsequently internalized. To determine if GSTpro was endocytosed after sortilin binding, we performed immunocytochemical staining with and without detergent (Fig. 6a, b, respectively). […] However, alternative interpretations are also possible (see discussion). […] We investigated if GSTpro was bound to the cell surface by using an acid wash to remove surface bound GSTpro. Cells were washed in PBS, pH 2.0 immediately before fixation, to remove extracellular ligand bound to receptors.

[3] = Precipitation and sticking to culture dishes; reagent stability; assay type: physicochemical; conditions: GSTpro versus proNGF
Description: This behavior led to more diffuse staining compared to GSTpro. […] Given the complications driven by the biophysical properties of proNGF, we pursued GSTpro as a source of the pro binding domain.
Due to reasons of stability of the proNGF protein and the specificity of binding, we recommend use of GSTpro in the assay, rather than recombinant proNGF. […] Although not formally tested by us, there may have been inconsistencies in the batches of proNGF protein used in the studies. As extracellular fluorescence could increase false positive cells by automated detection, proNGF was less reliable as a reagent in our assay (not shown). Both GSTpro and proNGF compete for binding to the sortilin receptor, it is likely that their binding sites are similar or at least overlap. Detection with GSTpro was more specific than with proNGF. […] The assay has the potential to use a tenfold lower concentration of GSTpro (5 nM, cf. Fig. 6v).

sortilin [4] = conditions: immobilized sortilin; ref Nykjaer et al. [2004]; read-out: affinity (immobilized sortilin); cited from earlier work
Description: The assay was also used to screen for blocking of sortilin-GSTpro interaction with compound AF38469, which ...

reduction of GSTpro signal by acid wash (sortilin [2]; data not shown): 20%
B1: GSTpro: fusion of Glutathione S-transferase (GST) merged at the C-terminal of GST to the pro part (19–121) of human proNGF (protein)
chain: EPHSESNVPAGHTIPQAHWTKLQHSLDTALRRARSAPAAAIAARVAGQTRNITVDPRLFKKRRLRSPRVLFSTQPPREAADTQDLDFEVGGAAPFNRTHRSKR
modifications: left off: GST, N-terminal, kept
notes: fusion of Glutathione S-transferase (GST) merged at the C-terminal of GST to the pro part (19–121) of human proNGF
GSTpro signal in internalization-mutant versus wt sortilin cells (in words) [1]: stronger GSTpro signal than wild type sortilin; also recorded: slightly higher signal
fraction of GSTpro signal removed by acid wash (in words) (sortilin [2]): only removes a small fraction of the GSTpro signal
stability compared to proNGF (in words) [3]: more stable than proNGF
Kd (sortilin [4]): 8 nM
